The record followed here is patent US20250059285A1 (ARGENX, published 2025).

Assay [1] concerns the target T1, human Gal10-His (human, UniProt Q05315 2-142, limits assumed).
T1 construct: also called hGal10-His; human Gal10-His tagged; not shown: His tag
T1 sequence: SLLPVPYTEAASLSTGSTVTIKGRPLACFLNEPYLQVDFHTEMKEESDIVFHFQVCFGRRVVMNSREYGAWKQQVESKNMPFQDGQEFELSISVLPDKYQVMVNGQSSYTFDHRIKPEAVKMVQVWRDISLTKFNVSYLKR
In words: SPR against T0 reference; sample 4 weeks at 37 C. The protocol:
(§1) The functional active concentration of the candidates was then assessed by SPR on a Biacore 3000 instrument (FIG. 4). All samples were evaluated with methods meeting the standard qualification criteria. Aliquots were tested at predefined test concentrations against titration curves from reference samples (T0, −80° C. storage) and in the presence of quality control (QC) samples covering a range of 70-130% relative activity (% RA) towards the reference material.
(§2) comparison/reference ⁽¹⁾ samples correspond to aliquots kept at +37° C. for 4 weeks ⁽²⁾ samples correspond to aliquots kept at +5° C. for 4 weeks prior to nebulization. In brief, samples were nebulized with an Aerogen Solo active vibrating mesh nebulizer that converted a drug solution into an inhalable aerosol. Three different devices for each time-point were used per clone and results are reported by the device (nebulizer) serial number. In case of device fouling, indicated by longer nebulization times […]

Assay [2] addresses T1, human Gal10-His. In words: SPR, summary table, human Gal10. Background: SPR reads the build-up and loss of mass on a sensor chip optically.
Assay [3] has as its target T1, human Gal10-His. In words: summary of periplasmic extract screening (BLI or SPR).
The target of assay [4] is T1, human Gal10-His. The experiment in a line: SPR, overview table of lead Fab candidates.
For assay [5], the target named is T1, human Gal10-His. The experiment in a line: SPR against T0 reference; sample 4 weeks at 5 C, then nebulized. As for the experimental part:
as §1, §2

Assay [6] deals with T1, human Gal10-His. In words: SPR Biacore 3000, Fab periplasmic extract on Gal10-His-coated CM5. As for the experimental part: The binding properties of the Fabs (periplasmic extract) to human Gal10-His were analyzed by SPR with a Biacore 3000 instrument. For this purpose, the diluted periplasmic extract was applied on a CM5 chip coated with human Gal10-His. As a positive control, a 20 nM injection of the purified g7B07 clone in the human Fab backbone was included at the beginning and end of the run.
The binding capacity of the Fab periplasmic extract was analyzed by SPR technology using a Biacore 3000. Briefly, diluted periplasmic extracts were injected on CM5 chip coated with 2500 RU of Gal10-His. The amplitude of the binding (Rmax), the dissociation (off-rate) of each clone, as well as the off-rate fold change compared to the controls (g7B07 and g7B07_N53A) are indicated. Clones g20H09 and g23H09 had similar or better off rate compared to the control g7B07 (Table 10). The randomized part of the CDR2 sequence is underlined (Table 10).

Assay [7] deals with T1, human Gal10-His. In words: SPR Biacore 3000, purified hFab on captured Gal10-His. As for the experimental part:
(§3) The binding properties of the selected Fab clones to human Gal10 were analyzed via a capture method established on a Biacore 3000 instrument. Two concentrations of the selected Fab clones were tested on human Gal10-His immobilized on a CM5 chip coated with a monoclonal anti-His. As controls, the clone g7B07 and g7B07_N53A were injected at the beginning and the end of the run. Briefly, a CM5 chip was coated with a monoclonal anti-His antibody (4000 RU), then a fixed concentration of the human Gal10-His (25 μg/mL) was captured on the anti-His chip before receiving two concentrations of the clones in the human Fab backbone.

Assay [8] concerns the target T1, human Gal10-His. In words: SPR slope against calibrators on captured Gal10-His; sample 2 weeks at 37 C. The protocol:
(§4) The binding properties of the seven selected clones following two weeks of temperature stress was analysed using an optimized capture method on a Biacore 3000 instrument. The binding properties of the stressed samples were determined, compared to the calibration point, and expressed as a percentage of Relative Activity (% RA).
(§5) Briefly, a capture method was set-up on a Biacore 3000 instrument. For this purpose, a CM5 chip was coated with a monoclonal anti-His antibody (4000 RU), then a fixed concentration of the human Gal10-His (25 μg/mL) was captured on the anti-His chip before receiving duplicate injections of the calibrators, QC samples and temperature stressed samples of each clone. The slope of each injected sample was then calculated using the BIA evaluation software. Concentrations of the QC samples and temperature stressed samples were back-calculated by interpolating the obtained slopes of these samples to the calibrator curve. Obtained values were within +/−20% of the nominal concentration of the tested samples and are expressed as average relative accuracy (avg % RA) (Table 13).

Assay [9] deals with T2, recombinant human Charcot-Leyden crystals (crystalline galectin-10) (human, UniProt Q05315 2-142, limits assumed).
T2 sequence: T1 sequence
In words: cell-based or functional assay.

Assay [10] concerns the target T3, cynomolgus Gal10-His (WGS isoform) (cynomolgus).
T3 construct: also called cynomolgus antigen
In words: SPR, summary table, cynomolgus_WGS Gal10.

Assay [11] concerns the target T1, human Gal10-His. The experiment in a line: competition ELISA on coated Gal10-His; hFab 20 ug/mL, competitor g7B07-hFab-Biot, streptavidin-HRP. As for the experimental part: An epitope binning analysis of the humanized Fab clones was carried out in comparison with the humanized Fab of g7B07.
For this experiment, a sub-optimal concentration of the biotinylated clone g7B07-humanized Fab was added to the Gal10 coated plate and pre-incubated with the selected clones. The percentage competition with g7B07 was then determined (Table 17). Motavizumab (Mota) in a human Fab backbone was used as a negative control (0% competition). Clone g7B07 was used as the positive control for competition and was therefore set as the 100% competition value. The anti-human specific clone 1D11 (binding to Tyrosine 69 residue) was included in the tested panel as a negative control for competition with 7B07 for Gal10 binding because it was known that clone 1D11 binds to the opposite side of Gal10 (including Tyrosine 69).
In general terms: An ELISA detects its analyte on a solid surface through an enzyme-linked reagent.

The target of assay [12] is T1, human Gal10-His. The experiment in a line: SPR Biacore 3000, purified hFab (2 conc.) on Gal10-His captured by anti-His CM5. The protocol: as §3
Assay [13] concerns the target T1, human Gal10-His. The experiment in a line: SPR slope against calibrators on captured Gal10-His; T0 sample. The protocol:
as §4, §5

Assay [14] deals with T1, human Gal10-His. The experiment in a line: SPR Biacore 3000, purified hFab 20 nM on Gal10-His-coated CM5.
For assay [15], the target named is T1, human Gal10-His. The experiment in a line: summary of periplasmic extract screening (BLI or SPR); control.
The target in assay [16] is T1, human Gal10-His. In words: SPR Biacore 3000, hFab on human Gal10-His captured by anti-His CM5. The protocol:
(§6) The binding properties of the selected clones to human and cynomolgus Gal10 was analyzed via a capture method established on a Biacore 3000 instrument.
(§7) For this purpose, two approaches were used. In the first, two concentrations of the selected clones were applied on cynomolgus (WGS isoform) Gal10-His capture on a CM5 chip coated with a monoclonal anti-His antibody. The second approach involved a serial dilution that was applied on human or cynomolgus (WGS isoform) Gal10-His in the same set-up.

Assay [17] has as its target T1, human Gal10-His. The experiment in a line: SPR Biacore 3000, control on Gal10-His-coated CM5. As for the experimental part: The off-rate of the remaining 25 clones of the ELISA experiment was determined by SPR on a Biacore 3000 instrument. Periplasmic extracts were injected on a CM5 sensor chip coated with 2500 RU Gal10-His.
The target in assay [18] is T1, human Gal10-His. The experiment in a line: SPR Biacore 3000, hFab on captured human Gal10-His; column head prints (M), the text gives nM. The protocol:
as §6, §7

Assay [19] concerns the target T3, cynomolgus Gal10-His (WGS isoform). In words: SPR Biacore 3000, hFab on captured cynomolgus Gal10-His (WGS); column head prints (M), the text gives nM. The protocol:
as §6, §7

Assay [20] shares this target. The experiment in a line: SPR Biacore 3000, hFab on cynomolgus Gal10-His (WGS) captured by anti-His CM5. The protocol: as §6, §7
Assay [21] has as its target T1, human Gal10-His. The experiment in a line: BLI Octet RED96, Gal10-His captured on anti-Penta-His tips. On the technique in general: BLI is a label-free optical method that tracks binding on a fibre tip over time.

B1: g20H09 (Fab) (Fab, V domains shown)
VH: EVQLLESGGGLVQPGGSLRLSCAASGFTFRSYDMSWVRQAPGKGLEWVSAIKWHRITYYADSVKGRFTISRDNSKNTLYLQMNSLRAEDTAVYYCATTHGIGTLGFGSWGQGTLVTVSS
VL: SYELTQPLSVSVALGQTARITCDGNNIGSKSAQWYQQKPGQAPVLVIYADEYRPEGIPERFSGSNSGNTATLTISRAQAGDEADYYCQVWDGSAAVFGGGTQLTVL
notes: same VH/VL
As usually defined, the Kd is a measure of binding affinity in units of concentration. The term koff denotes a measure of how fast the partners let go of each other. The kon is the rate constant with which the complex forms. In the case of B1, the “% relative activity by SPR” value in the assay with human Gal10-His [1] amounted to 101%. In the assay with human Gal10-His [2], binding was put at a Kd of 17.5 nM and the koff is 0.015 s⁻¹. Moreover, the “kd, fold compared to g7B07 (BLI or SPR)” value with human Gal10-His [3] amounted to 0.8 fold. In the assay with human Gal10-His [4], the affinity, expressed as Kd, was 17.7 nM and the koff came to 0.047 s⁻¹. Also, the “% relative activity by SPR” value with human Gal10-His [5] came to 97%. In the assay with human Gal10-His [6], the “Fold off-rate compared to g7B07” value worked out at 1.3 fold and the koff is 0.0088 s⁻¹. In the assay with human Gal10-His [7], the “fold higher dissociation rate than g7B07” value worked out at 3 fold. Also, the “% Relative Activity (RA) on Biacore” value with human Gal10-His [8] was determined as 86%. In assay [9], the “crystal dissolution % Relative Activity towards the reference T0 after 2 h, nebulized” value amounted to 66%; the “crystal dissolution % Relative Activity towards the reference T0 after 2 h, stressed” value turned out to be 96%; the “recGal10 crystal dissolution EC50 (T2 h), Assay 1, nebulized” value was 395 µg/mL; the “recGal10 crystal dissolution EC50 (T2 h), Assay 1, stressed (4 W at 37 C)” value worked out at 272 µg/mL. Also, in [9], the “recGal10 crystal dissolution EC50 (T2 h), Assay 1, unstressed (T0)” value is 260 µg/mL. In assay [10], this molecule showed a Kd of 22 nM and a koff of 0.046 s⁻¹. Besides, in the assay with human Gal10-His [11], the “% Competition against g7B07-Biot” value was found to be 93.2% and the “Mean OD value” amounted to 0.33 OD. In the assay with human Gal10-His [12], the Kd was 17.5 nM, the “kd-fold drop vs g7B07” value stood at 0.3 fold, the koff amounted to 0.015 s⁻¹ and the kon was 860000 M⁻¹ s⁻¹. Further, in the assay with human Gal10-His [13], the “% Relative Activity (RA) on Biacore” value turned out to be 110%.

B2: g7B07 (human Fab) (Fab, V domains shown)
VH: EVQLLESGGGLVQPGGSLRLSCAASGFTFRSYDMSWVRQAPGKGLEWVSAIKNGGGITYYADSVKGRFTISRDNSKNTLYLQMNSLRAEDTAVYYCATTHGIGTLGFGSWGQGTLVTVSS
VL: B1 VL
notes: Human Fab backbone; their format is not certain; also called g7B07-hFab; germlined 7B07
Take B2: the “Fold off-rate compared to g7B07” value with human Gal10-His [14] and in the assay with human Gal10-His [17] was 1 fold in each case. Moreover, the koff with human Gal10-His [14] amounted to 0.0069 s⁻¹; with human Gal10-His [16], 0.006 s⁻¹; in the assay with human Gal10-His [17], 0.00218 s⁻¹; in assay [20], 0.13 s⁻¹; in the assay with human Gal10-His [12], 0.0047 s⁻¹; in the assay with human Gal10-His [21] it was 0.00754 s⁻¹. In the assay with human Gal10-His [15], the “kd, fold compared to g7B07 (BLI or SPR)” value came out at 1 fold. Moreover, the “Amplitude R0” value worked out at 607 RU in the assay with human Gal10-His [16] and 64 RU in assay [20]. Besides, the results for the kon (with human Gal10-His [16]; in assay [20]; with human Gal10-His [12]) were 670000 M⁻¹ s⁻¹, 1.9e+06 M⁻¹ s⁻¹ and 420000 M⁻¹ s⁻¹, respectively. Besides, the Kd with human Gal10-His [18] came out at 9.08 nM; in assay [19], 69.5 nM; with human Gal10-His [12], 11.1 nM. Moreover, the “kd-fold drop vs g7B07” value with human Gal10-His [12] was found to be 1 fold. Also, in the assay with human Gal10-His [21], the “kd fold difference to reference” value was determined as 1 fold.
